Measurements reported in the supplement of paper PMC9170038.

Test system: MS2 coat protein
Test: apparent KD of MS2 coat protein, switch OFF state (with FMN for OFF switches, without FMN for ON switches); designed switch direction (-1 OFF switch, 1 ON switch): -1; higher = weaker reporter binding
Conditions: FMN input: 0 or 200 uM; Eterna round: R93 (includes R88 designs)
Procedure, shortened: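 Illumina sequencing clusters were used for on-chip transcription of designed RNA switches. Titration with SNAP-549-labelled MS2 coat protein followed, in twofold steps from 0.7 or 1.5 nM to 3 µM in 100 mM Tris-HCl pH 7.5, 80 mM KCl, 4 mM MgCl2, without or with constant ligand. Apparent KD is each design's median of fits to normalised cluster binding curves.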

Sequence | apparent KD of MS2 coat protein
AGCACGUCAGGAUAUACGAAAAAAAAGGGUAAAAAAAACACACAUGAGGAUCACCCAUGUAGAAGGGACAAGCA [Diamond 94] | 86.8 nM
AAUGCGGCAGGAUAUACAUGAGGAUCACCCAUGUAGAUCAGAUAUAUGGGAAAACCAUGUAGAAGGGCCGCAAA [Ex 3May 60] | 29.6 nM
AACAGUACAGGAUAUACAUGAGGAUCACCCAUGUAAAAAAAGGGUGGCGUACCACGAAGUAGAAGGGUACUGGA [Moding Maslow revisited (73) 11] | 81.3 nM
CUCUUGUCAGGAUAUCUAAGAAAAGAAAAGAAAGAAAAGAAAGAGAAGGGACAUGAGGAUCACCCAUGUAAGAA [EteRNA is fun!] | 42.4 nM
GAAAAGUCAGGAUAUACAGAAAAAAAAACGAAAAAAAAUCUGUAGAAGGGACAUGAGGAUCACCCAUGUAAAAA [Mat - Exclusion 4 - Mayanna - D122] | 37.6 nM
AGAAAGUCAGGAUAUGUACAAAAUAAAAUAAAAAUAAAAGUACAGAAGGGACAUGAGGAUCACCCAUGUAAAGA [Mat - Exclusion 4 - Mayanna - D121] | 52.4 nM
AGAAAGGCAGGAUAUACAUGAGGAUCACCCAUGUUAAGAAAGACGGAAACGUCAAGAAGUAGAAGGGCCAAGAA [Shaken, but not stirred] | 19.7 nM
AAAAAGGUAGGAUAUGCAAAAAAUAAUUUAAAAAAAAAAAAACAUGAGGAUCACCCAUGUAGAAGGACCAAAAA [Design 2.0] | 28.8 nM
GAAAAGUGAGGAUAUACAUGAGGAUCACCCAUGUGUAUAAAAAAAUACACAAAAGAAAGUAGAAGGCACUAAAG [Mat - Exclusion 3 - Mayanna mod - D110] | 48.7 nM
AAAAAACAUGAGGAUCACCCAUGUGAGGAUAUUGGUAUUGAGGGUAUAAUCUCAAUAGCGAGAAGGCGCAUAAA [Brourd 613 Mod 14 - Jieux - Exclusion 1] | 45.3 nM
AAACCACAUGAGGAUCACCCAUGUCAGGAUAUGAACGAAAUAAAAUAAAAAUAAAAGUUCAGAAGGGACGAAAA [Mat - Exclusion 1 - Eli mod - D17] | 33.8 nM
GAAAAUGGAGGAUAUACAUGAGGAUCACCCAUGUGUAAAAAAAAUUACACAAAAGAAAGUAGAAGGCCAUAAAA [Mat - Exclusion 3 - Mayanna mod - D107] | 174 nM
AAAAAGAUAGGAUAUACGAACAUGUCGAAAGACGUGAAGGGACAUGAGGAUCACCCAUGUAGAAGGAUUAAAAA [Mat - Exclusion 2 - JL mod - D89] | 16.8 nM
ACAGUUACAGGAUAUACAAAGGUAACUUCAAAGAAAACUCUACAUGAGGAUCACCCAUGUAGAAGGGUAACUGA [Ex2 Design 200 (probably): Random 17] | 18.2 nM
AGUAUCACAGGAUAUACAUAGGUGAAAAAAGUAAAUCCACUACAUGAGGAUCACCCAUGUAGAAGGGUGAUACA [Ex2 Design 177: Random 4B] | 62.2 nM
GAAAACAGAGGAUAUACAAAAUUGACACGAAAGGUGCAAAAACAUGAGGAUCACCCAUGUAGAAGGCUGAAGAA [Meechl MS2 Ex2 3] | 21.1 nM
CUCGUGUCAGGAUAUGGAAGGCCGUUUGAUUAACGAGGGUACUAGAAGGGACAUGAGGAUCACCCAUGUAAAAA [Maonis] | 90.4 nM
AACUGACAUGAGGAUCACCCAUGUCAGGAUAUGAUUUGACGAAAAAAAACACGUCAUAUCAGAAGGGACAUGGA [Design 85: Sub-opt X] | 39.5 nM
AAAAAACAUGAGGAUCACCCAUGUAAGGAUAUGCUAGGAAAAAGAAAAAUAAAAACUAGCAGAAGGUACAUGAA [JL wbt mod 11] | 113 nM
AAGAAACAUGAGGAUCACCCAUGUCAGGAUAUGAAAAAGAAAAGAAAAGAAAGAAGAAUCAGAAGGGACAAAGG [Neferkauhor Khuwihapi] | 27.4 nM
AGUCGGCGAGGAUAUACAUGAGGAUCACCCAUGUGAGAGAAAAAAGUGAGUUAGACAUGUAGAAGGCGCUGACA [JL Lego Mod 8] | 26.8 nM
GAAAACAGAGGAUAUACAUGAGGAUCACCCAUGUAAAAAUGUAGAAGGCUGAAAGAAAGAAGAAGGAAAGAAAA [Meechl Ex3 R2 m2] | 28.3 nM

Sequence | apparent KD of MS2 coat protein
AAGGUACGAGGAUAUACAUAGAUACAAACACAUGUGGAUGUACAUGAGGAUCACCCAUGUAGAAGGCGUAUAUA [AJ 22] | 84.7 nM
ACCUAACAUGAGGAUCACCCAUGUGAGGAUAUAGACGUGAAUUAAACACGUAACAAAACUAGAAGGCACUGGGC [Erbeardi] | 16.8 nM
UACAGACAUGAGGAUCACCCAUGUGAGGAUAUUCAUAACGAUAUUACAAGUAUGACAGGAAGAAGGCACAGCAA [JR_Exc001_Sub010] | 47.5 nM
AAAAGGUGAGGAUAUACAUGAGGAUCACCCAUGUAGAAAGGAAGUGUAAAAAAAAAGUGUAGAAGGCAUCAUGA [MS2 Riboswitches On Chip Exclusion 3 wbt3] | 48 nM
AAGCUGGUAGGAUAUACUAGGGCAACUAAUGCACCGAGAGGACAUGAGGAUCACCCAUGUAGAAGGGCCAGAAA [Mat - Exclusion 2 - JL mod - D63] | 82.3 nM
AAGAACCUAGGAUAUACAAAAUAAAAGAAAAGAAAGAAAGAACAUGAGGAUCACCCAUGUAGAAGGAGGAAGAA [Renseneb] | 18.5 nM
AAAAAGAGAGGAUAUACAUGAGGAUCACCCAUGUAAAAAAGAAGAAAGAAAAAAAAAUGUAGAAGGCUCAAAAA ['Exclusion 3'] | 34.3 nM
AAAAAGGUAGGAUAUACGAAAAAAAAAAGGUGAAAAAAAAAACAUGAGGAUCACCCAUGUAGAAGGACCAAAAA [Ex 2 sub 1 70% 3] | 62 nM
AAGAAGUCAGGAUAUGCUGCUCGUCACUUGCGUGAUGAGUAGCAGAAGGGACAUGAGGAUCACCCAUGUGGAAA [Modifying Chris (69%) Late G segment 2] | 246 nM
AAAAAACAUGAGGAUCACCCAUGUAAGGAUAUGCUAGGAAAAAGAAAAAUAAAAACUAGCAGAAGGUACAUUAA [JL wbt mod 9] | 38.3 nM
GUAGUGUGAGGAUAUGGAUAGAAGAAGUGAAAGUAAGAGAACUAGAAGGCACAUGAGGAUCACCCAUGUAUGUG [JR_Exc004_Sub1701] | 53.3 nM
CUCUUGUGAGGAUAUUGAAGAAAAGAAGAGAAAGAAAAGAACAAGAAGGCACAUGAGGAUCACCCAUGUAAGAA [EteRNA is fun!] | 44.2 nM
AAGAAGUAAGGAUAUACAAGAAAGAAAGAAAAGAAAAGAAAACAUGAGGAUCACCCAUGUAGAAGGUACUAGAA [EteRNA is fun!] | 14.9 nM
AGCUAGUCAGGAUAUACGCAAACGAACGAAGCUGAGAAGGGACAUGAGGAUCACCCAUGUAGAAGGGACUAGCA [Diamond 32] | 55.6 nM
AAGGGACAUGAGGAUCACCCAUGUCAGGAUAUGAUGCGAAUAAAGAAAGAAUAAAGCAUCAGAAGGGACGCCAA [Mat - Exclusion 1 - Eli mod - D65] | 25.7 nM
UAUAACGAAGGAUAUACUAACGAAACUAAUGCAUAUAUAUAACAUGAGGAUCACCCAUGUAGAAGGUCGAGAAU [JR_Exc002_Sub011] | 28.8 nM
AAACCACAUGAGGAUCACCCAUGUAAGGAUAUGAACGAAAUAAAAUAAAAAUAAAAGUUCAGAAGGUACAAAAA [Mat - Exclusion 1 - Eli mod - D22] | 22.1 nM
AGAAAGUCAGGAUAUACGAAAGUGCGAAAGCACAAAAGGGAACAUGAGGAUCACCCAUGUAGAAGGGACAAGAA [Diamond 77] | 170 nM
GGUUGGCGAGGAUAUACAUGAGGAUCACCCAUGUGAGAGGAAAAAGUGAGGAGGAGAAGUAGAAGGCGCUGACG [salish99-ex3-22] | 138 nM
AGUUGGCGAGGAUAUACAUGAGGAUCACCCAUGUGAAAGAAAAACUCGAAAGAGAAAAGUAGAAGGCGCUGACA [Mat - Exclusion 3 - Eli mod - D93] | 37.6 nM
CUCAAGUGAGGAUAUACGAAUAGUAAGUAAGUAUAACAGACGUAGAAGGCACAUGAGGAUCACCCAUGUAAAUA [JR_Exc004_Sub303] | 28 nM
CCAAGACAUGAGGAUCACCCAUGUGAGGAUAUAGGUGUAUGCAAAAAAAAGUUAAAAACUAGAAGGCACAGAAA [JR_Exc001_Sub306] | 25 nM
